In test [1] the target is human α-thrombin (recombinant) (human), P00734. Description: cell-based or functional assay.
For test [2] the target is unchanged. The experiment in a line: assay not named; the printed µM is most likely a misprint of pM (compare Table 5 and paragraph 9).
For test [3] the target is unchanged. The experiment in a line: thrombin amidolytic assay with S2238, Morrison tight-binding fit.
Test [4] shares this target. Description: comparison of Ki values.
For test [5] the target is unchanged. The experiment in a line: cell-based or functional assay. The source holds these as a separate data set.
Test [6] has the same target. The experiment in a line: thrombin amidolytic assay with S2238; column headed Affinity (nM).

Where two headings read alike, the source gives them in different places.

By Ki is commonly meant a dissociation constant, usually derived from enzyme kinetics or from competition with a known ligand. In the case of SDEAVRAIPKMYSTAPPGDFEEIPDDAIEE (modifications not checked) [ultravariegin], the IC50, inhibition of thrombin amidolytic activity in test [1] came to 0.4 nM; in test [5], 0.26 nM. In addition, the results for the Ki in test [2], in test [3] and in test [6] were 1500 nM, 0.0044 nM and 0.001 nM, respectively. For the same molecule, the fold more potent than variegin (Ki) in test [4] is above 70 fold. Also, the fold stronger affinity than avathrin and variegin in test [4] is above 200 fold.

For the origin of these results see US20190002511A1.
